Tests used:
[1] = molecular target: T1, mouse TrkB-ECD-GST (mouse, UniProt P15209 32-429); assay: ELISA
T1 construct: extracellular domain; in-house fusion, HEK293; also called mTrkB-ECD-GST; mTrkB (ELISA); not shown: glutathione S-transferase (GST) fusion part

[2] = molecular target: T2, human TrkB-His (human, UniProt Q16620 32-430); assay: BLI off-rate, mAb captured
T2 construct: in-house fusion of the TrkB ECD with poly-His, HEK293; also called huTrkB-His; hTrkB-His; not shown: poly-His tag

[3] = molecular target: human TrkC-His (human, UniProt Q16288 32-429); assay: ELISA
[4] = molecular target: human TrkA-His (human, UniProt P04629 33-417, limits assumed); assay: ELISA
[5] = molecular target: TrkB in PathHunter eXpress TrkB Functional Assay cells (modified U2OS); assay: cell-based or functional assay

Sequence of human TrkA-His (P04629 33-417 limits assumed): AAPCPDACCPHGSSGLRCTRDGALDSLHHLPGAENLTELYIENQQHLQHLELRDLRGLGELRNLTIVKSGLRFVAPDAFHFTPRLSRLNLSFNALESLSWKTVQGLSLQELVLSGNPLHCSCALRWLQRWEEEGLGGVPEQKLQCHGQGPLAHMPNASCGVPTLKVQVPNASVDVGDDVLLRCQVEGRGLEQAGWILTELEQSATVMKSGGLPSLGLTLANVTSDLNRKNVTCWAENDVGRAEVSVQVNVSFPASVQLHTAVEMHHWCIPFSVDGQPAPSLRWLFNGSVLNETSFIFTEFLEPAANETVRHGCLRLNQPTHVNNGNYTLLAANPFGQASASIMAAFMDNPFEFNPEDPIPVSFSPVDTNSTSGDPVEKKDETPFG

Binder | binding result [1] | koff [2] | binding result [3] | binding result [4] | TrkB activation (EC50) [5]
anti-TrkB clone 1E07 (antibody, V domains shown, full-length IgG) VH: QVQLVQSGAEVKKPGESLRISCKGSGYSFTNNWINWVRQMPGKGLEWMGRIDPDDSYTNYSPSFQGHVIFSADKSSNTVYLQWSSLEASDTAMYYCARRAQGGGGYDYWGQGTLVTVSS VL: QSVLTQPPSVSGAPGQRVTISCTGSSSNIGAGFNVHWYQQVAGLAPKLLIHDNINRPSGVPDRFSGSKSGASASLTITGLQAEDEADYYCQSYDSSLSGWFAFGTGTKVTVL | binds | 0.00613 s⁻¹ | no binding (tested: up to 10 µg/mL) | no binding (tested: up to 10 µg/mL) | 0.13 mg/L
anti-TrkB clone 3H11 (antibody, V domains shown, full-length IgG) VH: QVQLQQSGPGLVKPSQTLSLTCAISGDSVSSNSAVWNWIRQSPSRGLEWLGRTYYRSKWYTDFAVSVKSRITINPDTSKNQFSLQLNSVTPEDTAVYYCARGRNGMDVWGQGTMVTVST VL: LPVLTQPPSASGTPGQRVTISCSGSSSNIGHKYVYWYQQLPGAAPKLLIYRNNQRPSGVPDRFSASKSGTSASLAISGLRSEDEADYYCATWDDSLNGVVFGGGTKVTVL | binds | 0.0057 s⁻¹ | no binding (tested: up to 10 µg/mL) | no binding (tested: up to 10 µg/mL) | 0.02 mg/L
anti-TrkB clone 3E04 (antibody, V domains shown, full-length IgG) VH: EVQLVQSGAEVKKPGESLKISCKGSGYSFTSYWIGWVRQMPGKGLEWMGIIYPGDSDTRYSPSFQGQVTISADKSISTAYLQWSSLKASDTAMYYCASRLLFGDDAFDIWGQGTMVTVSS VL: SYVLTQPPSVSVSPGQTATITCSGDKLGDEYVSWYQQKPGQSPVLVIYQDSKRPSGIPERFSGSNSGNTATLTISGAQAVDEADYYCQAWDSNAGAFGTGTKLTVL | binds | 0.00534 s⁻¹ | no binding (tested: up to 10 µg/mL) | no binding (tested: up to 10 µg/mL) | 0.11 mg/L
anti-TrkB clone 3F06 (antibody, V domains shown, full-length IgG) VH: QMQLVQSGAEVKKPGESLKISCKGSGYSFSTNWIGWVRQMPGKGLEWMGIIYPGDSDTRYSPSFQGQVTISADKSISTAYLQWSSLKASDTAMYYCARFYDSSGNDYWGQGTLVTVSS VL: QSVLTQPPSVSVSPGQTASITCSGDKLGDKYASWYQQKPGQSPVLVIFQDNKRPSGIPERFSGSNSGNTATLTISGTQAMDEADYYCQTWDSSTAIFGGGTKLTVL | binds | 0.00479 s⁻¹ | no binding (tested: up to 10 µg/mL) | no binding (tested: up to 10 µg/mL) | 0.14 mg/L
anti-TrkB clone 3F09 (antibody, V domains shown, full-length IgG) VH: EVQLVQSGAEVKKPGESLKISCKGSGYSFTSYWIGWVRQMPGKGLEWMGIIYPGDSDTRYSPSFQGQVTISADKSISTAYLQWSSLKASDTAMYYCVVRPAAAGTRIDYWGQGTLVTVSS VL: QSVLTQPPSVSVSPGQTASITCSGDKLGDKYASWYQQKPGQSPVLIIYQDNKRPSGIPERFSGSNSGNTATLTISGTQAMDEADYYCQAWDSSTYVFGTGTKLTVL | – | 0.00631 s⁻¹ | no binding (tested: up to 10 µg/mL) | no binding (tested: up to 10 µg/mL) | 0.053 mg/L
anti-TrkB clone 5C07 (antibody, V domains shown, full-length IgG) VH: QVQLVQSGAEVKKPGESLKISCKGFGYSFTNYWIGWVRQMPGKGLEWMGIIYPGDSDTRYSPSFQGQVTISADKSITTAYLQWSSLKASDTAMYYCASHTKDGTWDIWGQGTMVTVSS VL: QAGLTQPPSVSVSPGQTASITCSGERLGDKYVSWYQQKPGQSPVLVIYQDDKRPSGVPERFSGSNSGNTATLNISGTQPMDEADYYCQAWDSSTSLYVFGTGTKLTVL | binds | 0.00457 s⁻¹ | no binding (tested: up to 10 µg/mL) | no binding (tested: up to 10 µg/mL) | 0.47 mg/L
anti-TrkB clone 4F03 (antibody, V domains shown, full-length IgG) VH: EVQLVQSGAEVKKPGESLKISCKGSGYSFTSYWIGWVRQMPGKGLEWMGIIYPGDSDTRYSPSFQGQVTISADKSISTAYLQWSSLKASDTAMYYCASWGMDVWGQGTLVTVSS VL: QPVLTQPPSASGTPGQRVTISCSGSSSNIGTHTVNWYQQFPGTAPKLLMYSTFQRPSGVPDRFSGSKSGTSASLAISGLQSEDEADYYCAAWDDSLNGPVFGGGTQLTVL | – | 0.00639 s⁻¹ | no binding (tested: up to 10 µg/mL) | no binding (tested: up to 10 µg/mL) | 0.041 mg/L
anti-TrkB clone 3A05 (antibody, V domains shown, full-length IgG) VH: QVQLVESGAEVKKPGESLKISCKGSGYSFTTYWIAWVRQMPGKGLEWMGIIYPGDSDTRYSPSFQGQVTISADKSISTAYLQWSSLKASDTAMYYCARLGGGMDVWGQGTMVTVSS VL: QAGLTQPPSASGTPGQRVTISCSGSSSNIGSNTVSWYRQIPGTAPKFLLYGNNQRPSGVPARFSGSKSGTSASLAVDGLQSDDEADYYCAAWDDSLSGYVFGTGTKLTVL | binds | 0.00435 s⁻¹ | no binding (tested: up to 10 µg/mL) | no binding (tested: up to 10 µg/mL) | 0.006 mg/L
anti-TrkB clone 6F04 (antibody, V domains shown, full-length IgG) VH: EVQLVQSGAEVKKPGESLKISCKGSGYSFTSYWIGWVRQMPGKGLEWMGIIYPGDSDTRYSPSFQGQVTISADKSISTAYLQWSSLKASDTAMYYCARGSGGYDYWGQGTLVTVSS VL: QSVLTQPPSVSVSPGQTASITCSGNKLGDKFVSWYHQRPGQSPVLVIYEDNKRPSGIPERFSGSNSGNTATLTISGTQAMDEGDYYCQTWDVSSYVFGTGTKVTVL | binds | 0.00473 s⁻¹ | no binding (tested: up to 10 µg/mL) | no binding (tested: up to 10 µg/mL) | 0.035 mg/L
anti-TrkB clone 3B04 (antibody, V domains shown, full-length IgG) VH: QVQLVQSGAEVKKPGEPLKISCKGSGYSFPTYWIAWVRQMPGKGLEWMGIIYPGDSDTRYSPSFQGQVTISADKSISTAYLQWGSLRASDTAMYYCARGGSGLDYWGQGTLVTVSS VL: SYELMQPPSVSVSPGQTASITCSGDKLGTKYVSWYQQKPGQSPVLVIYQDSKRPSGIPERFSGSNSGNTATLTISGTQAMDEADYYCQAWDSSTVVFGGGTKLTVL | binds | 0.00802 s⁻¹ | no binding (tested: up to 10 µg/mL) | no binding (tested: up to 10 µg/mL) | 0.1 mg/L
anti-TrkB clone 6B04 (antibody, V domains shown, full-length IgG) VH: QVQLVQSGAEVKKPGESLKISCKGSGYSFTSYWIGWVRQMPGKGLEWMGIIYPGDSDTRYSPSFQGQVTISADKSISTAYLQWSSLKASDTAIYYCARLGGAMDVWGQGTLVTVSS VL: SYELMQPPSLSVSPGQTASITCSGDKLGDKYVSWYQQRPGQSPVLVMYQDKKRPSGIPKRFSGSNSGNTATLTISGTQAMDEADYYCAAWDDSLNGYYVFGTGTQLTVL | binds | 0.00678 s⁻¹ | no binding (tested: up to 10 µg/mL) | no binding (tested: up to 10 µg/mL) | 0.039 mg/L
anti-TrkB clone 3A06 (antibody, V domains shown, full-length IgG) VH: not shown VL: QSVLTQPPSVSVSPGQTASITCSGDKLGNKYASWYRQKPGQSPVLVIYQDTKRPSGIPERFSGSNSGNTATLTISGTQAMDEGDYYCQAWDSSTAVVFGGGTKLTVL | binds | 0.00453 s⁻¹ | no binding (tested: up to 10 µg/mL) | no binding (tested: up to 10 µg/mL) | 0.15 mg/L
anti-TrkB clone 3B09 (antibody, V domains shown, full-length IgG) VH: EVQLVQSGAEVKKPGESLKISCKGSGYSFTSYWIGWVRQMPGKGLEWMGIIYPGDSDTRYSPSFQGQVTISADKSISTAYLQWSSLKASDTAMYYCATPMEDGMDVWGQGTTVTVSS VL: QAGLTQPPSVSVSPGQTVTITCSADNLGDKYTSWYQQRPGQSPVLVIYQDTKRPSGIPARFSGSNSGNTATLTISGTQAMDEADYYCQAWDSSTGVFGTGTKVTVL | binds | 0.00472 s⁻¹ | no binding (tested: up to 10 µg/mL) | no binding (tested: up to 10 µg/mL) | 0.094 mg/L
anti-TrkB clone 3C02 (antibody, V domains shown, full-length IgG) VH: QVQLVQSGAEVKKPGESLKISCKGSGYSFTSYWIGWVRQMPGKGLEWMGIIYPGDSDTRYSPSFQGQVTISADKSISTAYLQWSSLKASDTAMYYCARGGPPDYWGQGTLVTVSS VL: not shown | binds | 0.00494 s⁻¹ | no binding (tested: up to 10 µg/mL) | no binding (tested: up to 10 µg/mL) | 0.15 mg/L
anti-TrkB clone 6E08 (antibody, V domains shown, full-length IgG) VH: QVQLVQSGGGVVQPGRSLRLSCAASGFTFSSYAMHWVRQAPGKGLEWVAVISYDGSNKYYADSVKGRFTISRDNSKNTLYLQMNSLRAEDTAVYYCARAFRRYDAFDIWGQGTLVTVSS VL: DIQMTQTPLSLSVTLGQPASISCRSSQGLVYSDGNTYLNWFQQRPGQSPRRLIYKVSNRDSGVPDRFSGSGSGTDFTLKISRVEAEDVGVYYCMQGTHWPPAFGQGTKVEIK | binds | 0.0064 s⁻¹ | no binding (tested: up to 10 µg/mL) | no binding (tested: up to 10 µg/mL) | 4.2 mg/L

Reference: US20260092121A1 (TALEM THERAPEUTICS, published 2026)
